According to publication PMC12855784:
Like-named read-outs stand apart in the source and are kept apart here.

Experiments:
Test in all cases: SEC-MALS
[1] = molecular target: AcrIIA19 (full length, C-terminal 6×His tag) (Staphylococcus pseudintermedius)
[2] = molecular target: Streptococcus pyogenes Cas9, full length, 6×His tagged (Streptococcus pyogenes) (UniProt Q99ZW2)
[3] = molecular target: AcrIIA19 (full length, C-terminal 6×His tag) (Staphylococcus pseudintermedius); remark: listed apart in the source

UniProt Q99ZW2, sequence (Q99ZW2 whole entry): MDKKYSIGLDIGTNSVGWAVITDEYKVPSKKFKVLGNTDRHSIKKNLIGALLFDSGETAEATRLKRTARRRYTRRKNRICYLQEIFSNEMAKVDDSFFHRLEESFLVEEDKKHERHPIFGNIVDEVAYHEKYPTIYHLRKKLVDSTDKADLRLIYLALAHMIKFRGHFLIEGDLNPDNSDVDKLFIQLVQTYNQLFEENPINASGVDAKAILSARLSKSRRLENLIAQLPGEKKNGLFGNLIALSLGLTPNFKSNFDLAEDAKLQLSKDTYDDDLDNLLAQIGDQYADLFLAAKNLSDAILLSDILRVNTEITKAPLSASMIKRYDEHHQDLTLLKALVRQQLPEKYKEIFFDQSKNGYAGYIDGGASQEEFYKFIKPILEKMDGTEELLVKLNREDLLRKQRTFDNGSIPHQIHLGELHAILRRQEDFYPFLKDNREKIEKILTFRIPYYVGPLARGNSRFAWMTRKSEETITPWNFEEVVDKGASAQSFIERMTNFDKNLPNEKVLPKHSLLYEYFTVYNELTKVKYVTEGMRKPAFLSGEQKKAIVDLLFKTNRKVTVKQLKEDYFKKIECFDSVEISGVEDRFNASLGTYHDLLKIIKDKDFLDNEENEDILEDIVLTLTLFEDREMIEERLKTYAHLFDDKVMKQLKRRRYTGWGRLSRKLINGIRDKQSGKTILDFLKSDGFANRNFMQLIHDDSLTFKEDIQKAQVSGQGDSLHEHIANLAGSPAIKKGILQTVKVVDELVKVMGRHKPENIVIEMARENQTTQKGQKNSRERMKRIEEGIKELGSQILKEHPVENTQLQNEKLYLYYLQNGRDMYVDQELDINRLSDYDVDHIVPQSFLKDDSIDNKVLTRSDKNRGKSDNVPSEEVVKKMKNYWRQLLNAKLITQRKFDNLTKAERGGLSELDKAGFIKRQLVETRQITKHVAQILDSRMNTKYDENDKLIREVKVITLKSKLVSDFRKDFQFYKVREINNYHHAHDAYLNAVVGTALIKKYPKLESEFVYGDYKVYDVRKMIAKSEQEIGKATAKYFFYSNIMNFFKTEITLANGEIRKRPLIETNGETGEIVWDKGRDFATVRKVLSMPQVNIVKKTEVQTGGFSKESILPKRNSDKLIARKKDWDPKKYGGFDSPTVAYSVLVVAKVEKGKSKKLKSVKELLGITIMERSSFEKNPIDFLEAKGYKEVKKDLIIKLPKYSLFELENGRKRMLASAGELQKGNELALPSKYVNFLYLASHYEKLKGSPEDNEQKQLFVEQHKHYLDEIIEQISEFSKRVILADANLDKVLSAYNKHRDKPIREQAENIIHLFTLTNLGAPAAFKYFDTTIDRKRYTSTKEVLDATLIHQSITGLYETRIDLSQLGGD

“AcrIIA19 (full length, C-terminal 6×His tag) (natural protein)” showed a stoichiometry N [1] of 2, a stoichiometry N (AcrIIA19 per Cas9) [2] of 1 and a stoichiometry N [3] of 2.
